# Laboratory results: article PMC9724675, “POPDC1 scaffolds a complex of adenylyl cyclase 9 and the potassium channel TREK‐1 in heart” (EMBO Reports, 2022)
# Target: T1, POPDC1-Myc (Popeye domain-containing protein 1, Myc-tagged) (mouse, UniProt Q9ES83 1-358)
# T1 construct: POPDC1 (Bves), mouse; construct described in Froese et al 2012 and Schindler et al 2016b; Mouse is stated for the BiFC constructs, which were made from the previously described tagged constructs; also called Myc-tagged POPDC1; BVES; source: HEK293 or COS-7, transfected, in cells or in lysate
# T1 sequence (looked up): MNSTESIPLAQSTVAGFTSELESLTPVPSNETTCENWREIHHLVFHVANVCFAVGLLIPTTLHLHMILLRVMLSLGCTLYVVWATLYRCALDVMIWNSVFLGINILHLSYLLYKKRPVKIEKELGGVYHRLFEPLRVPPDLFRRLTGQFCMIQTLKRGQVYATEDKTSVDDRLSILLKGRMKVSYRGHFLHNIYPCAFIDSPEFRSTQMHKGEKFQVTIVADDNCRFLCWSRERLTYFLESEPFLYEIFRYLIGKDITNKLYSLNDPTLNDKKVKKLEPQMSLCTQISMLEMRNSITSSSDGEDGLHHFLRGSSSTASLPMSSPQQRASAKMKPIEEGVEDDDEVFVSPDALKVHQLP
# Assay: co-IP; IP-AC assay: HEK293 lysates expressing AC1 or AC8 with or without Myc-tagged POPDC1, immunoprecipitation with anti-MYC, AC activity stimulated with 100 μM calcium and 300 nM calmodulin
# Conditions: partners not purified
binder,measurement,value
"nontagged AC1 (adenylyl cyclase 1) (enzyme, adenylyl cyclase 1 (AC1), Ca2+/calmodulin-stimulated; the plasmid is not described; source: HEK293, transfected, in lysate) not shown",fold Ca2+/calmodulin-stimulated AC activity in the POPDC1 immunoprecipitate over IgG controls,1.59 ± 0.05 fold
